Values of other authors, collected in article PMC9437947.

Molecular target: Lys166 (UniProt position 166, RAVKTKIGYPA)
Test: kinetics
Conditions: H297N mutant turning over S-mandelate in the exchange reaction

Substance: Mandelate racemase H297N mutant (Pseudomonas putida (inferred; organism not stated in the article); H297N)
- pKa: ~ 6
